Source: patent US20040116355A1 (CYTOVIA, published 2004)
* marks the point of attachment. Ethoxycarbonyl = CCOC(=O)*; CH2F = FC*

T1: rCaspase 3 (purchased from PharMingen) (UniProt P42574 29-277, limits assumed)
T1 sequence (looked up): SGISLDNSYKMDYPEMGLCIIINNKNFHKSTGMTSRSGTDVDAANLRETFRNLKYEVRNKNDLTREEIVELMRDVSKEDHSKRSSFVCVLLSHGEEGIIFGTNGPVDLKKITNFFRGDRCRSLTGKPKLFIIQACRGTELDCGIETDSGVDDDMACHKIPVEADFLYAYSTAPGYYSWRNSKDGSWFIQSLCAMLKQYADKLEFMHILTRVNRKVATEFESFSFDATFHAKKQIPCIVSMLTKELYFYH


Target: T1, rCaspase 3 (purchased from PharMingen)
Experiment: cell-based or functional assay

Row | Caspase-3 IC50 (fluorometric enzyme assay, cleavage of 10 uM Ac-DEVD-AMC by 2 ng rCaspase 3) [nM] | Binder
1 | 72 | cyclohexylmethoxycarbonyl-Val-Asp-CH2F [Cyclohexylmethoxycarbonyl-Val-Asp-fmk]
2 | 58 | Ethoxycarbonyl-Val-Asp-CH2F (SMILES CCOC(=O)N[C@H](C(=O)N[C@@H](CC(=O)O)C(=O)CF)C(C)C) [Ethoxycarbonyl-Val-Asp-fmk]
